# From the supplement of paper PMC10126150
# ± gives the standard deviation of the averaged measurements.
# System: ATP
# Assay: switch fluorescence ratio, 500 uM ATP over buffer (Cy3 cluster intensity, sum of 5 cycles each) (fold (ratio)); higher = stronger signal-on switching upon ATP binding; sequences stand for … in TCGTCGGCAGCGTCAGATGTGTATAAGAGACAGTTTTTTTTTTTTTTTTTTTTTTTTT…TC
# Details: aptamer strand: ATP DNA aptamer (quencher-CACCTGGGGGAGTATTGCGGAGGAAGG + anchor), 100 nM annealed; ATP concentration: 500 uM
# How it was run: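 Cy3-labelled switching-strand clusters on a modified Illumina MiSeq flow-cell were annealed to 100 nM quencher-labelled ATP aptamer and imaged first in selection buffer, then after 15 min with 500 uM ATP at 22 °C. NaOH stripping and re-annealing separated each of five buffer/ATP cycles, and clusters outside 100-1000 RFU were excluded. The fluorescence ratio sums target-cycle Cy3 intensity over buffer-cycle Cy3 intensity per cluster and averages it per switch-domain sequence.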
# 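Note: ATP exposure 15 min at 22 °C before imaging.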
row,Sequence,switch fluorescence ratio
1,AAAGCGGTAT,1.038 ± 0.007
2,TAAAAGTATG,0.969 ± 0.054
3,AGGTGTGTAG,0.99 ± 0.032
4,ATGGGGGAAC,0.975 ± 0.011
5,GAGGCGACGT,0.963 ± 0.027
6,TTTCTGCGGC,1.046 ± 0.0017
7,TGTTTCTCGC,1.05 ± 0.037
8,TGGTCAGAGT,1.01 ± 0.023
9,ATCGAATTGG,0.998 ± 0.026
10,AAGGCGGGAG,0.96 ± 0.032
11,GGGGAGTTTA,1.027 ± 0.0017
12,AGGTCTGGCA,0.995 ± 0.016
13,TGTGCTGGTG,1.039 ± 0.0068
14,ATTGCATTAA,0.985 ± 0.033
15,TCTGTTATCG,0.983 ± 0.043
16,ATCAGGTGGT,1.19 ± 0.036
17,ATAAGGGTTT,0.9905 ± 0.0095
18,GCGTTGCAGG,1.02 ± 0.018
19,GGGGTATGTT,0.99 ± 0.036
20,ACCAAGCCAT,1.09 ± 0.077
21,GGGGTCGATG,0.9847 ± 0.0042
22,ATTGTTTTAG,1.01 ± 0.025
23,TTACCGGGCA,1.033 ± 0.0093

row,Sequence,switch fluorescence ratio
1,GGTGCGTTCT,1 ± 0.043
2,TGAGAGCTGG,0.98517 ± 0.00094
3,TGCACAATCG,1.01 ± 0.1
4,GTTTTTAACT,1.012 ± 0.0075
5,ACAGTGGCAT,0.997 ± 0.034
6,GCTAGGTGTA,1.12 ± 0.043
7,TAGCAATGTT,1.64 ± 0.52
8,GGGGACCTAC,1.08 ± 0.022
9,ATTGTGAGGG,0.993 ± 0.011
10,TTTAGCCGGT,0.995 ± 0.012
11,TAATTTTAAT,1.025 ± 0.0087
12,TGGTGACTGA,0.981 ± 0.011
13,CTGGTTGCGG,0.979 ± 0.021
14,CAGGGGAGCG,0.993 ± 0.037
15,TGGTAGGGTA,1.03 ± 0.034
16,TCATGGGAGA,0.984 ± 0.04
17,CAAATAGTGG,0.943 ± 0.034
18,TAGTAGGGTT,0.986 ± 0.021
19,AAACTTTTTT,0.9566 ± 0.0049
20,GTGGGGTATT,0.977 ± 0.028
21,TGCGATTTGT,1.04 ± 0.043
22,GTCACAGTTG,1.015 ± 0.0045
23,GGGATAGATC,1.05 ± 0.016

row,Sequence,switch fluorescence ratio
1,TAAAATGGTG,1.01 ± 0.035
2,GGTAAAGGTT,0.999 ± 0.034
3,ATCAGTTCCT,1.04 ± 0.013
4,TTCTGTTATT,1.11 ± 0.21
5,CTCCTAAATG,1.19 ± 0.015
6,CGAAAGGGTT,0.9983 ± 0.0072
7,TTTTGTTAAT,1.01 ± 0.035
8,TTCGTTATAG,1.01 ± 0.044
9,CCGGAAGCAG,3.95 ± 0.66
10,TTTCGTTGGT,0.982 ± 0.016
11,AGTTAGTGAA,0.99 ± 0.022
12,TATTCAGGGA,1.02 ± 0.02
13,CCACGGGTTA,1.045 ± 0.005
14,TCGGGGGACT,0.9827 ± 0.0063
15,AGGGCAGGGC,0.917 ± 0.069
16,GGCGTAAGGG,1.01 ± 0.019
17,GTATAAAGGC,1.01 ± 0.047
18,ATTTCAGAGG,1.02 ± 0.017
19,ATTTGAGGTA,1.01 ± 0.012
20,AAGAGTGTCG,0.921 ± 0.056
21,GTGTGTGGCT,0.976 ± 0.051
22,TAAGCGCCAT,1.029 ± 0.0049
23,ATATGATGTA,0.966 ± 0.014

row,Sequence,switch fluorescence ratio
1,ACAGAGGAGC,1.062 ± 0.006
2,TGAGGCAGAG,1.06 ± 0.015
3,TAGGAGTTAT,1.01 ± 0.04
4,AAGTGGGCCT,0.981 ± 0.038
5,TTGGTGTTGC,0.9916 ± 0.0057
6,AATGTTATTA,0.995 ± 0.048
7,TCGGTAGGGC,1.025 ± 0.0089
8,ACTTTGGTGG,1 ± 0.029
9,AAAACGAGTG,1.02 ± 0.023
10,CACGTGTGTG,0.961 ± 0.029
11,ATGGGGATCA,1.017 ± 0.0022
12,ATATACATGT,1.02 ± 0.038
13,GGTGAAAACG,0.9913 ± 0.0094
14,TTGGGCTAGG,1 ± 0.0054
15,GTTAAGGATT,1.03 ± 0.085
16,TTTCTCGTAG,0.991 ± 0.016
17,TACCTAAACG,1.08 ± 0.033
18,GTGGAATATT,1.04 ± 0.063
19,TCACGTGTCA,0.9999 ± 0.0089
20,ATTTCACTGA,1.03 ± 0.011
21,AAAAAGTGGG,0.992 ± 0.039
22,GTGAGCATGT,1.01 ± 0.024
23,AAAAAGAATG,0.973 ± 0.03

row,Sequence,switch fluorescence ratio
1,AGTGGATATT,1.02 ± 0.011
2,GAAGCAGCAG,1.1888 ± 0.00054
3,GGGCAGGTTC,1.08 ± 0.085
4,GCTTCAGGGT,0.989 ± 0.025
5,GGGGGGTTGC,0.967 ± 0.035
6,TTCCCCGGCA,1.28 ± 0.35
7,ATGGGTATTG,1.009 ± 0.0039
8,CGACAAGAAC,2.94 ± 0.18
9,AAATGCGTTT,0.979 ± 0.019
10,TCATGGTCCC,1.02 ± 0.018
11,CGCAGGGTTA,1.02 ± 0.052
12,AAAGCTAGGA,0.979 ± 0.036
13,AAAACCAGCG,1.03 ± 0.047
14,CGGACGGGTG,1.02 ± 0.018
15,AAACGGGTAG,1.07 ± 0.1
16,TCCGGGCTGG,1.02 ± 0.013
17,ACCTAGTGTG,1.135 ± 0.0024
18,CCCTAGGGTC,1.01 ± 0.023
19,CCTTGCTGTG,1.06 ± 0.039
20,TTCGATCCGT,1.07 ± 0.029
21,AAAAGTTTGC,1.02 ± 0.056
22,GACATAGCGG,1.07 ± 0.03
23,AGCGACTGTA,1.15 ± 0.22

row,Sequence,switch fluorescence ratio
1,TAATACGTTT,0.986 ± 0.032
2,TCAAAGATAA,0.98902 ± 2.8e-05
3,CAATATATAC,1.13 ± 0.043
4,TTATTCGGTG,0.98 ± 0.021
5,TTTAAGGTGG,1.015 ± 0.0046
6,TTGTTCGAGG,0.988 ± 0.026
7,GCGGCTGTCG,0.948 ± 0.085
8,GCAAGAATTT,0.982 ± 0.046
9,CGGGTATTTC,1.01 ± 0.014
10,CTGTCGGGGT,0.982 ± 0.037
11,GCGAATAAGT,1.02 ± 0.031
12,AATGTTAGTG,0.958 ± 0.036
13,ATATGTCAAG,1.0025 ± 0.00017
14,TAGGTAGCTT,1.02 ± 0.021
15,ATGAGGTTGC,0.978 ± 0.011
16,CTATGTTTTG,0.979 ± 0.017
17,GGATTCTGGG,0.963 ± 0.042
18,TCTGGGACGT,0.9824 ± 0.0033
19,AAACGGGGCG,0.9719 ± 0.0047
20,TCAGTCAAGG,0.9745 ± 0.0044
21,TTATAATAG,1.039 ± 0.0073
22,TTAGTTGAGG,0.987 ± 0.05
23,GGTGCGGCTG,1.01 ± 0.073

row,Sequence,switch fluorescence ratio
1,GGGATCCATG,1.01 ± 0.019
2,TAGGAGTAAC,0.9812 ± 0.0037
3,GGATGGGGTC,0.975 ± 0.02
4,GTTTTATTTG,1.01 ± 0.025
5,GGGGGGGAGT,0.995 ± 0.02
6,GGGAGCCACG,1.02 ± 0.036
7,TGGGTGTAGG,1.007 ± 0.004
8,GTCTACATTG,0.997 ± 0.01
9,CCTAATGCCG,0.996 ± 0.04
10,AGTGGTGTCT,1.01 ± 0.033
11,ACTTGAACGG,1.16 ± 0.034
12,ACCCGTTGCC,1.03 ± 0.057
13,CCTTCACCGT,2.21 ± 0.14
14,ATTTTCATTA,0.996 ± 0.0096
15,TAATAATCCA,0.994 ± 0.017
16,TTTGGTGCGG,0.985 ± 0.01
17,GCATGGGTAC,1.05 ± 0.018
18,TAATTTGGTT,1.01 ± 0.026
19,TTTTTTTCAT,1 ± 0.028
